Earlier results as cited in article PMC13681993.

Biological target: GAB1 pY627 (Homo sapiens) (UniProt Q13480)
Experiment: fluorescence polarization

Kd: 287 nM
Substance: PTPN11 N-SH2 (from UniProt Q06124)
